Laboratory results as given in article doi:10.1101/2020.09.01.276469.

Columns and labels:
Experiment in all cases: BLI
[1] = target: TPX2 C-terminus (a.a. 480-716) (Xenopus laevis) (UniProt Q6NUF4)
[2] = target: double-mutant TPX2 (DM-TPX2) (Xenopus laevis) (UniProt Q6NUF4)
[3] = target: triple-mutant TPX2 (TM-TPX2) (Xenopus laevis) (UniProt Q6NUF4)
[4] = target: TPX2 aa1-178Δ123 (TPX2 1-178 with the KKLK motif mutated) (Xenopus laevis) (UniProt Q6NUF4)

importin-αΔIBB (importin-α without the importin-β binding domain) (domain or fragment), sequence (P52170 71-522, stated change not applied): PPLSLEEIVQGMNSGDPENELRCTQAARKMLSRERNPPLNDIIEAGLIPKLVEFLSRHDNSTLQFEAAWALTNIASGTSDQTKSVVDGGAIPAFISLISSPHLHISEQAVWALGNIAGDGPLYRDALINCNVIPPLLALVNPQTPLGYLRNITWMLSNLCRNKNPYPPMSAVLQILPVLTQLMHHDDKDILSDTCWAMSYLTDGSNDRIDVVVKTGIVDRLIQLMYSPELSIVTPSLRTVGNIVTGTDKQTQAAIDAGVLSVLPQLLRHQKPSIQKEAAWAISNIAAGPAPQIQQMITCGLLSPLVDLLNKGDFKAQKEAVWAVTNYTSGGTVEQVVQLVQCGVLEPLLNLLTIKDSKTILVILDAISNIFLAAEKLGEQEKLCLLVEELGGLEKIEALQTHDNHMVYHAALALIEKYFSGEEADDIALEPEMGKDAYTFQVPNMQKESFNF
TPX2 C-terminus (a.a. 480-716) (Xenopus laevis), sequence (Q6NUF4 480-716): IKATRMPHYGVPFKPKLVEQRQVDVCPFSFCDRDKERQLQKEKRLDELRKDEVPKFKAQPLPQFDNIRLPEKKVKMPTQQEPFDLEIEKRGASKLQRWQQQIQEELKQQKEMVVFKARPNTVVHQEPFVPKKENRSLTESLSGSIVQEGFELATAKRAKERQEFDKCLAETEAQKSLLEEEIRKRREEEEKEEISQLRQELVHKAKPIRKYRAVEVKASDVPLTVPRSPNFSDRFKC
importin-β, sequence (P52297 whole entry): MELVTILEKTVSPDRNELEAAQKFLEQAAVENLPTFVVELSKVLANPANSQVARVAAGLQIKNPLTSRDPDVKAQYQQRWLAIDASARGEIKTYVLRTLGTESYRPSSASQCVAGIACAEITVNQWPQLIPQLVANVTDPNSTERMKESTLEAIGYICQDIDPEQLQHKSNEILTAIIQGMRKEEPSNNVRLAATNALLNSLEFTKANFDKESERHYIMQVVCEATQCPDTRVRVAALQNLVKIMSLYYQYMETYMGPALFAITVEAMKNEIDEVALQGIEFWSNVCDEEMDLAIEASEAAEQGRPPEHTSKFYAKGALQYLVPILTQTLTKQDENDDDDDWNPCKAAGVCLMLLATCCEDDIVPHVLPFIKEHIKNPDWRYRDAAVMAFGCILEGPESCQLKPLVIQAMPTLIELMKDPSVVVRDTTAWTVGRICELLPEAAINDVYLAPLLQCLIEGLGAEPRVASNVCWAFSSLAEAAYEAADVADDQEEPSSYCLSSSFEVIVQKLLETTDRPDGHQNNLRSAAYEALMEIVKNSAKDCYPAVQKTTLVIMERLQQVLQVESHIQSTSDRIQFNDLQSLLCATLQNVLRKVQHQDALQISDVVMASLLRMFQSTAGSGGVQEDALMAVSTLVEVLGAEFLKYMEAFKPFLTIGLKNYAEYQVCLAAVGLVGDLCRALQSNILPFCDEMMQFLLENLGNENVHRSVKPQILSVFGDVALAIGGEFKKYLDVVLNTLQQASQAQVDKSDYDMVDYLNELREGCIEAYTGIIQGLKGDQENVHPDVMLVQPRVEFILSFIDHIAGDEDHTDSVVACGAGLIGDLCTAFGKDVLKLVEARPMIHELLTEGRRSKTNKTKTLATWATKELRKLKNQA

Row | Substance | Kd [1] [nM] | Kd [2] [nM] | Kd [3] [nM] | fold loss of binding against the wild type 1-178 TPX2 construct [4] [fold]
1 | importin-β (from UniProt P52297 1-876) (natural protein) | > 4000 | – | – | –
2 | importin-αΔIBB (importin-α without the importin-β binding domain) (domain or fragment) | – | 45 | 410 | 10
